Target: P622-G772A/S773A (ADGRG2-P622 with G772 and S773 of the ECL2 changed to alanine) (human) (UniProt Q8IZP9)
UniProt Q8IZP9, sequence (Q8IZP9 622-1017 G772A/S773A): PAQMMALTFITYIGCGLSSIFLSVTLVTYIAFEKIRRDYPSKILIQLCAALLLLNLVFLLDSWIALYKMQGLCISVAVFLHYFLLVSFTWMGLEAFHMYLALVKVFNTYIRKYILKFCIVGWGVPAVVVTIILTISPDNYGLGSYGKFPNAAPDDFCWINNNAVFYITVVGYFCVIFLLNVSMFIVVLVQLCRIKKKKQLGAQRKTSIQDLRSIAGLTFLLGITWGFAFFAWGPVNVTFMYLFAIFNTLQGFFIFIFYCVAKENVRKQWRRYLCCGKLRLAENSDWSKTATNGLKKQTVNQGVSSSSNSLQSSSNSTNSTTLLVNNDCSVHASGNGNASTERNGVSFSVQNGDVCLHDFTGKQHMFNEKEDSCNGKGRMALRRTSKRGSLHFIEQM

Substance “synthetic P-15 (15-amino acid long Stachel peptide of ADGRG2)” has a CRE-luciferase reporter response to P-15, reduction against P622-CWI of 30% and an SRE-luciferase reporter response to P-15, reduction against P622-CWI of 40%.
